Kd and koff data for 8 molecules are collected here from article PMC7943553 (2021).

For assay [1], the target named is T1, P. vivax Reticulocyte Binding Protein 2b, residues 161–1454 (P. vivax strain Salvador I, UniProt A5K736 161-1454, DyLight 488 (NHS ester) in the FRET assay; biotin (BirA site) in the competition ELISA between human mAbs).
T1 chain: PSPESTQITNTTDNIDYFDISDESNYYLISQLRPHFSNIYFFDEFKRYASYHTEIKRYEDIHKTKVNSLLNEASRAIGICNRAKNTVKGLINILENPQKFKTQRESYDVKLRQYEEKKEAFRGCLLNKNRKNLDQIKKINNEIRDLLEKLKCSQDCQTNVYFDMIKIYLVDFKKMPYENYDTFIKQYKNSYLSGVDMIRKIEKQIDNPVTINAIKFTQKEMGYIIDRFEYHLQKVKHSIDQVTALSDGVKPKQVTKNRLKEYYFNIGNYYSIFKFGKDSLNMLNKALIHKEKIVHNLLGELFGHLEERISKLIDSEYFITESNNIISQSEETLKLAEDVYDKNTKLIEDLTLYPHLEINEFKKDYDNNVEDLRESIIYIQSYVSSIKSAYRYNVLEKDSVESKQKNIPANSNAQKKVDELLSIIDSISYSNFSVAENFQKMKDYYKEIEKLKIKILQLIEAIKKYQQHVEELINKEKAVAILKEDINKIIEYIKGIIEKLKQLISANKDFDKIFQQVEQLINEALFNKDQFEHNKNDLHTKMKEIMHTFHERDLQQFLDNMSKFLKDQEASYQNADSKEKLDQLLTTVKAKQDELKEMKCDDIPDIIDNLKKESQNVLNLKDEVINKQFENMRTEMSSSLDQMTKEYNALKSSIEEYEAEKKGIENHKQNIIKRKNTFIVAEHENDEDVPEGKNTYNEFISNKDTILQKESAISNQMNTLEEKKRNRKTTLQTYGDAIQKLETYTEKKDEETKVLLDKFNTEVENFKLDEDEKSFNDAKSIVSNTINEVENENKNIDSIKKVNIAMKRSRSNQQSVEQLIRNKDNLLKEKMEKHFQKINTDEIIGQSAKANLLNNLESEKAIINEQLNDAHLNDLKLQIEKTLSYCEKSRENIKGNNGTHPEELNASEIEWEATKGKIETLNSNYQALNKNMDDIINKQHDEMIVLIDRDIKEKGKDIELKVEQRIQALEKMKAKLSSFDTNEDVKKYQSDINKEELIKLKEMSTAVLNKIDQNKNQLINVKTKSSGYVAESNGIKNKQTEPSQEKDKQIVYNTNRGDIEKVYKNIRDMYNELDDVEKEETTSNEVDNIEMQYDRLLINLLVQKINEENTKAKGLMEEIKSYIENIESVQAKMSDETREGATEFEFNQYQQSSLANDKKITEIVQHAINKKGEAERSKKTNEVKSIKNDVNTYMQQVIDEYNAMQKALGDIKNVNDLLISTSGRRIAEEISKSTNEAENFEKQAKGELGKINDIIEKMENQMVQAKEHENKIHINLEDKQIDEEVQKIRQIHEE
The assay is described as follows: BLI. For orientation: Biolayer interferometry detects binding as a change in optical thickness at a sensor tip.

Assay [2] deals with T1, P. vivax Reticulocyte Binding Protein …. The assay is described as follows: BLI.
Assay [3] shares this target. The assay is described as follows: BLI; representative sensorgram.

A value given as a limit tells only on which side of the number the result lay.

B1: PvRBP2b human mAb 253245 (antibody, V domains shown)
VH: EVQLVQSGAEVKKPGSSMKVSCKASGGTFNRYVFSWVRQAPGQGLEWMGGILPILETTYYAKNFKGRVTITADESTSTVYMELSSLTSEDTAVYFCARDEHDYVWGSYRPSLTGPWGQGTLVTVSS
VL: QSALTQPPSTSGSPGQSVTISCTGTGIDVGGFSYVSWFQYHPGKAPKLIIFEVTKRPSGVPDRFSGSKSGNTASLTISGLQADDEAEYYCSSYAVNNNFVFGTGTKVTVL
For B1, the Kd is 30.7 pM in assay [1] and under 10 pM in assay [3]. In addition, in assay [2], the off-rate constant (koff) is 8.17e-06 s⁻¹.

B2: PvRBP2b human mAb 251249 (antibody, V domains shown)
VH: EVQLVESGGGLVKPGGSLRLSCEASGFLFSSYSMNWVRQAPGKGLEWVSSITGYSSEVFYTDSVKGRFTVSRDNSKNSLYLQMDSLRAEDTAVYYCARALTIFGVVITDYWFFDLWGRGTLVTVSS
VL: EIVLTQSPATLSLSPGDRATLSCRASQSVTTFLAWYQQKPGQAPRLLIYDVSNRATGIPARFSGSGSGTDFTLTISSLEPEDFAVYYCQQRSNWGLTFGGGTKVEIK
In the case of B2, the equilibrium dissociation constant (Kd) in assay [1] and in assay [3] was under 10 pM in each case. Moreover, the koff in assay [2] is under 1e-06 s⁻¹.

B3: PvRBP2b human mAb 241242 (antibody, V domains shown)
VH: EVQLLESGGGLVQPGGSLRLSCAVSGFTFRNYALSWVRQAPGKGLDWVSTISASGGATYYADSVKGHFTISRDNSKNILYLDMKSLRAEDTAIYYCARDGGSYTPYFFLDSWGQGALVTVSS
VL: SYELTQPASVSVAPGQTAQITCGGNSIGRKSIHWYQHKPGQAPVLVISYDSDRPSGIPERFSGSNSGNTATLTISKVEAGDEADFYCQVRDSDNDHVVFGGGTKLTVL
Turning to B3, the Kd is 61 pM in assay [1] and under 10 pM in assay [3]. The koff in assay [2] came out at 2.13e-05 s⁻¹.

B4: PvRBP2b human mAb 283284 (antibody, V domains shown)
VH: QVQLQQWGAGLLKPSETLALTCTVYGGSSSGYYWNWIRQSPGKGLEWIGEISDSGSTIYNPSLESRVTMSVDTSKNQFSLKLTSVTAADTAVYYCAKAILTRYNWLDPWSQGTLVTVSS
VL: DIVMTQSPSSLSASVGDRISISCRASQGVNSALAWYQQKPGKAPKLLIYDASTLESGVPSRFSGSGSGTDFALTINSLQPEDFATYYCQQFNSYPLTFGGGTKVEIK
For B4, the dissociation constant Kd in assay [1] is 246 pM; in assay [3], 100 pM. The koff in assay [2] was determined as 6e-05 s⁻¹.

B5: PvRBP2b human mAb 243244 (antibody, V domains shown)
VH: QVQLVESGGGVVQSGKSLRVSCAASGFTFSSYGMHWVRQAPGKGLEWVAFISYDGDNKYSADSVKGRLTISRDNSKNTLYLQMNSLRPEDTAVYYCAKESNYGENAFDIWGQGTMVTVSS
VL: QSALTQPRSVSGSPGQSVTISCTGTSSDVGFYNFVSWYQHHPGKAPKLIIYDVSERPSGVPDRFSGSKSGNTASLSISGLQPEDEADYYCCSYAGTYTFVFGSGTKVTVL
For the molecule B5, the figures for the Kd in assay [1] and in assay [3] were 36.6 pM and under 10 pM, respectively. This molecule registered a dissociation rate constant (koff) in assay [2] of 1.15e-05 s⁻¹.

B6: PvRBP2b human mAb 237235 (antibody, V domains shown)
VH: QVQLVESGGGVVQPGRSLRLSCAASGFMFNSYGMHWVRQAPGKGLEWMAFISYDGSDDYYGDSVKGRITISRDNSKNTLFLHINSLRTEDTAVYYCAKESNYGENAFDVWGHGTMVTVSS
VL: QSALTQPRSVSGSPGQSVTISCTGTSNDVGFYNFVSWYQHHPGKAPKLMIYDVTERPSGVPDRFSGSKSGNTASLTISGLQAEDEAEYYCCSYAGTYTFVFGHGTKVTVL
For the molecule B6, the Kd in assay [1] was found to be 88.3 pM; in assay [3], 100 pM. The off-rate (koff) in assay [2] was 3.45e-05 s⁻¹.

B7: PvRBP2b human mAb 273264 (antibody, V domains shown)
VH: EVQLLESGGGLVRPGGSQRLSCAASGFTFTPYAMTWVRQAPGKGLEWLSTISGSGGSTSYADSVKGRFTISRDNSKNILYLQMDSLRAEDTALYYCTKDKDEYTFGHNAFDVWGRGTMVTVSS
VL: SYELTQAPSVSVAPGQTARITCGGDNIGRTSVHWYQQKPGQAPVLVIFYDNDRPSGIPERFSGSNSGNMATLSISRVEVGDEADYYCQVWDSNNDHPVFGGGTKLTVV
Turning to B7, the Kd is 83 pM in assay [1] and under 10 pM in assay [3]. In assay [2], this molecule came in with a koff of 3.02e-05 s⁻¹.

B8: PvRBP2b human mAb 258259 (antibody, V domains shown)
VH: EVQLLESGGGLVRPGGSQRLSCAASGFTFTPYAMTWVRQAPGKGLEWLSTISGSGGSTYYADSVKGRFTISRDNSKNMLYLQMNSLTAEDTALYYCTKDKDEYTFGHNAFDVWGQGTMVTVSS
VL: SYELTQAPSVSVAPGQTARITCGGDNIGRKTVNWYQQKPGQAPVLVIYYDNDRPSGIPERFSGSNSGNMATLSISRVEVGDEADYYCQVWDSNNDHPVFGGGTKLTVV
As for B8, the figures for the Kd in assay [1] and in assay [3] were 26.9 pM and under 10 pM, respectively. Further, the koff in assay [2] was determined as 7.57e-06 s⁻¹.

As usually defined, the Kd is the concentration at which binding is half-saturated. Broadly, the koff is the first-order rate constant of dissociation. A high value points to a short-lived complex.
